Experimental data as given in patent US20210188969A1, “ANTIBODIES THAT BIND INTERLEUKIN-2 AND USES THEREOF” (published 2021).

How the values were obtained:
[1] = biological target: recombinant human IL-2 (human) (UniProt P60568)
[2] = biological target: recombinant human IL-2 (human) (UniProt P60568); remark: listed apart in the source
[3] = biological target: recombinant human IL-2 (human) (UniProt P60568); remark: listed apart in the source
[4] = biological target: recombinant human IL-2 (human) (UniProt P60568); remark: listed apart in the source
[5] = biological target: recombinant human IL-2 (human) (UniProt P60568); remark: listed apart in the source
[6] = biological target: recombinant human IL-2 (human) (UniProt P60568); remark: listed apart in the source
[7] = biological target: recombinant human IL-2 (human) (UniProt P60568); remark: listed apart in the source
[8] = biological target: recombinant human IL-2 (human) (UniProt P60568); remark: listed apart in the source
[9] = biological target: mouse IL-2 Rβγ on mouse primary NK cells (mouse) (UniProt P16297)
rat IL-2 = biological target: T1, rat IL-2 (rat, UniProt P17108); test: SPR (Biacore 4000), antibody captured on anti-human IgG Fc, IL-2 30 nM to 1 nM; affinity estimate
T1 sequence: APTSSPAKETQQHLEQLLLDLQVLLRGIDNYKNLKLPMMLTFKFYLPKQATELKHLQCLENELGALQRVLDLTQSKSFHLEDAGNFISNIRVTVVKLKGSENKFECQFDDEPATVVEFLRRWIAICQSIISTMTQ
Description: Antibody affinities were measured by SPR using the Biacore 4000 with a standard capture methodology. Briefly, anti-human IgG (Fc specific) from an anti-human antibody capture kit (Biacore) was immobilized onto spots 1, 2, 4, and 5 of all four flow cells of a CM-5 sensor chip by amine coupling according to the manufacturer's instructions. Running buffer was HBS-EP+ with 1% BSA. […] Data were analyzed using the Biacore 4000 Evaluation software.
These sequences were imported into vector NTI® (Lifetech) and aligned using the alignx tool.

isotype control (anti-KLH) (antibody)
EC50 of IL-2-induced phosphorylation of STAT5a,b, mouse primary NK cells, with isotype control [1]: 0.116 nM
EC50 of IL-2-induced phosphorylation of STAT5a,b, NK-92 cells, with isotype control [2]: 0.0009 nM

MAB602 (antibody)
fold right-shift in EC50 of IL-2-induced CD69 on Tregs, IL-2 pre-complexed with 200 nM antibody [3]: 5 to 10 fold
fold EC50 shift of IL-2-induced pSTAT5a,b, CTLL-2 (muRαβγ) [4]: 227 fold
fold EC50 shift of IL-2-induced pSTAT5a,b, Mouse Primary NK cells (muβγ) [4]: 3 fold
fold EC50 shift of IL-2-induced pSTAT5a,b, Human Primary NK cells (huRβγ) [5]: 10 fold
fold EC50 shift of IL-2-induced pSTAT5a,b, NK92 (huRαβγ) [5]: 959 fold
fold right-shift in EC50 of IL-2-induced CD69 on CD56bright NK cells, IL-2 pre-complexed with 200 nM antibody [6]: 5 to 10 fold
fold shift in EC50 of IL-2-induced phosphorylation of STAT5a,b, NK-92 cells, relative to isotype control [2]: 1000 fold
fold EC50 shift of IL-2-induced proliferation, BaF3/IL-2 HuRβγ [7]: 1.2 fold
fold EC50 shift of IL-2-induced proliferation, NK92 (huRαβγ) [7]: 15 fold
fold EC50 shift of IL-2-induced proliferation, CTLL-2 (muRαβγ) [8]: 18 fold

IL-2/MAB602 complex (from UniProt P60568)
EC50 of IL-2-induced phosphorylation of STAT5a,b, mouse primary NK cells, IL-2 pre-complexed with 100 nM antibody [9]: 0.361 nM

B1: XPA.92.042 (antibody, V domains shown)
VH: EVQLVQSGTEVKKAGDSLKISCKGSGYNFDTYWIGWVRQMPGRGLEWMGTIYPADSDTRYSPSFQGQVTMSADKSISTAYLQWGSLRASDTAMYYCARFSSSAYDIWGQGTMVTVSS
VL: SYELTQPPSVSVSPGQTARITCSGDALPRKFAYWYQQKSGQAPVLVIYQDTKRPSGIPERFSGSSSGTTVTLTISDVQAEDDADYYCQSADRSDSYVFGAGTKLTVLG
fold EC50 shift of IL-2-induced pSTAT5a,b, CTLL-2 (muRαβγ) [4]: 793 fold
fold EC50 shift of IL-2-induced pSTAT5a,b, Mouse Primary NK cells (muβγ) [4]: 14 fold
fold EC50 shift of IL-2-induced pSTAT5a,b, Human Primary NK cells (huRβγ) [5]: 41 fold
fold EC50 shift of IL-2-induced pSTAT5a,b, NK92 (huRαβγ) [5]: 1860 fold
fold EC50 shift of IL-2-induced proliferation, BaF3/IL-2 HuRβγ [7]: 5 fold
fold EC50 shift of IL-2-induced proliferation, NK92 (huRαβγ) [7]: 52 fold
fold EC50 shift of IL-2-induced proliferation, CTLL-2 (muRαβγ) [8]: 156 fold

B2: XPA.92.099 (antibody, V domains shown)
VH: QVQLVESGGGLVKPGRSLRLSCAASGFTFNRYAMSWVRQAPGKGLEWVAMISFDGGNQYYTDSVSGRFTISRDNSKTTLFLQMDSLRTEDTAVYYCVRSPAGDWVAYFDYWGQGTLVTVSS
VL: DIQMTQSPSSLSASIGDRVTIPCQASEDISNHLSWYQQKPGKAPKPLIFDASDLETGVPSRFSGSGSGTDFALTISSLRPDDFATYYCHQYHDYPSYTFGHGTKLEIKR
fold EC50 shift of IL-2-induced pSTAT5a,b, CTLL-2 (muRαβγ) [4]: 293 fold
fold EC50 shift of IL-2-induced pSTAT5a,b, Mouse Primary NK cells (muβγ) [4]: 17 fold
fold EC50 shift of IL-2-induced pSTAT5a,b, Human Primary NK cells (huRβγ) [5]: 24 fold
fold EC50 shift of IL-2-induced pSTAT5a,b, NK92 (huRαβγ) [5]: 495 fold
fold EC50 shift of IL-2-induced proliferation, BaF3/IL-2 HuRβγ [7]: 2.4 fold
fold EC50 shift of IL-2-induced proliferation, NK92 (huRαβγ) [7]: 22 fold
fold EC50 shift of IL-2-induced proliferation, CTLL-2 (muRαβγ) [8]: 54 fold

B3: XPA.92.019 (antibody, V domains shown)
VH: EVQLVESGGGLVQPGRSLRLSCAASGFTFSYYGMHWVRQAPGKGLEWVADISNDGSNKYYADSVKGRFTISRDNSKTTLYLQMNSLRPEDTAVYYCATPYYDSSGLDYWGQGTLVTVSS
VL: SYELTQPPSVSVSPGQTARITCSGDALPKRFAYWYQQKAGQAPVLVIYEDNKRPSGIPETLSGSSSGTTATLTISGAQEEDEADYYCYSTDNTGGLWVFGGGTKLTVLG
Kd (rat IL-2): > 1000 nM
fold shift in EC50 of IL-2-induced CD69 on Tregs, IL-2 pre-complexed with 200 nM antibody [3]: 10 to 15 fold
fold EC50 shift of IL-2-induced pSTAT5a,b, CTLL-2 (muRαβγ) [4]: 523 fold
fold EC50 shift of IL-2-induced pSTAT5a,b, Mouse Primary NK cells (muβγ) [4]: 15 fold
fold EC50 shift of IL-2-induced pSTAT5a,b, Human Primary NK cells (huRβγ) [5]: 40 fold
fold EC50 shift of IL-2-induced pSTAT5a,b, NK92 (huRαβγ) [5]: 966 fold
fold EC50 shift of IL-2-induced proliferation, BaF3/IL-2 HuRβγ [7]: 5.2 fold
fold EC50 shift of IL-2-induced proliferation, NK92 (huRαβγ) [7]: 33 fold
fold EC50 shift of IL-2-induced proliferation, CTLL-2 (muRαβγ) [8]: 130 fold
